Changes are numbered by the printed parent chain.
T1: exemplary TAT frataxin fusion molecule (HIV-1, UniProt Q16595 1-210)
T1 construct: in the bridging assays biotinylated and sulfotagged forms were used; also called TAT-FXN fusion molecule; TAT FXN fusion molecule
T1 sequence: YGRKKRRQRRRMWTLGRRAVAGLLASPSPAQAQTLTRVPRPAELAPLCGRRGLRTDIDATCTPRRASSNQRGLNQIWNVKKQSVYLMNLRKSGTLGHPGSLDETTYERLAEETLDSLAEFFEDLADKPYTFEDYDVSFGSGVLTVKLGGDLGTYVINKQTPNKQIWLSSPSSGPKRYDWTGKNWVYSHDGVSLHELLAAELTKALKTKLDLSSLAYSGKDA

B1: antibody 10-9 (antibody, V domains shown)
VH: QSLEESGGDLVKPGASLTLTCTASGFSFSSGYWICWVRQAPGKGLEWIACIYTGDGDTSYASWAKGRFTISKTSSTTVTLQMTSLTVADTAIYFCARDTSGTFYYNLWGPGTLVAVSS
VL: AAVLTQTPSSVSAAVGGTVTISCQSSESVYKTNYLSWFQKKPGQPPKLLIYDASTLASGVPSRFSGSGSGTQFTLTISDLECDDAATYYCAGGYSDDINAFGGGTEVEIK
notes: Rabbit monoclonal
B2: antibody 10-4 (antibody, V domains shown)
VH: B1 VH
VL: DVVMTQTPSPVSAPVGGTVTINCQASQNIYSNLAWYQQKPGQPPKLLIYGASTLASGVSSRFKGSRSGTEFTLTISDLECADAATYYCQSYVYSSSTADTFGGGTKVVVE
notes: Rabbit monoclonal
B3: antibody 12-1 (antibody, V domains shown)
VH: B1 VH
VL: B2 VL
notes: Rabbit monoclonal
B4: antibody 10-5 (antibody, V domains shown)
VH: B1 VH
VL: B2 VL
notes: Rabbit monoclonal
B5: antibody 12-10 (antibody, V domains shown)
VH: B1 VH
VL: B1 VL
notes: Rabbit monoclonal
B6: antibody 12-8 (antibody, V domains shown)
VH: B1 VH
VL: B1 VL
notes: Rabbit monoclonal
B7: antibody 12-3 (antibody, V domains shown)
VH: B1 VH
VL: B2 VL
notes: Rabbit monoclonal
B8: antibody 10-12 (antibody, V domains shown)
VH: B1 VH
VL: B1 VL with A1E, A2L, P8A, E108V, I109V
notes: Rabbit monoclonal
B9: antibody 10-1 (antibody, V domains shown)
VH: B1 VH
VL: B1 VL with A1E, A2L, P8A, E108V, I109V
notes: Rabbit monoclonal

What was measured:
[1] = target: exemplary TAT frataxin fusion molecule (HIV-1) (UniProt Q16595); assay: PK sandwich ELISA in human plasma, antibody as capture, HRP anti-frataxin mAb detection
[2] = target: exemplary TAT frataxin fusion molecule (HIV-1) (UniProt Q16595); assay: immunopurification from plasma on antibody-coated magnetic beads, trypsin digest, LC/MS of peptide …
[3] = target: exemplary TAT frataxin fusion molecule (HIV-1) (UniProt Q16595); assay: bridging (ADA) assay in human plasma: antibody titrated with biotinylated and sulfo-tagged TAT frataxin fusion molecule, streptavidin plate, ECL read-out
[4] = target: T1, exemplary TAT frataxin fusion molecule; assay: PK sandwich ELISA in human plasma, antibody as capture, HRP anti-frataxin mAb detection

Molecule | Mean OD at plasma conc. 0.400 ng/mL [4] [OD] | Mean OD at plasma conc. 0.800 ng/mL [4] [OD] | Mean OD at plasma conc. 1.60 ng/mL [4] [OD] | Mean OD at plasma conc. 3.20 ng/mL [4] [OD] | Mean OD at plasma conc. 6.40 ng/mL [4] [OD] | Mean OD at plasma conc. 12.8 ng/mL [4] [OD] | Mean OD at plasma conc. 25.6 ng/mL [4] [OD] | Mean OD at plasma conc. 51.2 ng/mL [4] [OD] | S/N at plasma conc. 0.400 ng/mL [4] | S/N at plasma conc. 0.800 ng/mL [4] | S/N at plasma conc. 1.60 ng/mL [4] | S/N at plasma conc. 3.20 ng/mL [4] | S/N at plasma conc. 6.40 ng/mL [4] | S/N at plasma conc. 12.8 ng/mL [4] | S/N at plasma conc. 25.6 ng/mL [4] | S/N at plasma conc. 51.2 ng/mL [4] | also measured
polyclonal anti-TAT E8332 polyclonal antibody |  |  |  |  |  |  |  |  |  |  |  |  |  |  |  |  | Mean OD at plasma conc. 0.400 ng/mL [1]: 0.075 OD; Mean OD at plasma conc. 0.800 ng/mL [1]: 0.113 OD; Mean OD at plasma conc. 1.60 ng/mL [1]: 0.165 OD; Mean OD at plasma conc. 3.20 ng/mL [1]: 0.322 OD; Mean OD at plasma conc. 6.40 ng/mL [1]: 0.631 OD; Mean OD at plasma conc. 12.8 ng/mL [1]: 1.08 OD; Mean OD at plasma conc. 25.6 ng/mL [1]: 1.83 OD; Mean OD at plasma conc. 51.2 ng/mL [1]: 3.1 OD; S/N at plasma conc. 0.400 ng/mL [1]: 1.5; S/N at plasma conc. 0.800 ng/mL [1]: 2.3; S/N at plasma conc. 1.60 ng/mL [1]: 3.4; S/N at plasma conc. 3.20 ng/mL [1]: 6.6; S/N at plasma conc. 6.40 ng/mL [1]: 12.9; S/N at plasma conc. 12.8 ng/mL [1]: 22.1; S/N at plasma conc. 25.6 ng/mL [1]: 37.3; S/N at plasma conc. 51.2 ng/mL [1]: 63.3; LC/MS signal after immunopurification, fold higher than with anti-TAT antibody ab63957 [2]: 5 fold higher; EC50 (read off the curve) [3]: 20 µg/mL
B1 | 0.077 | 0.1 | 0.14 | 0.229 | 0.437 | 0.781 | 1.49 | 2.77 | 1.6 | 2.1 | 3 | 4.9 | 9.3 | 16.6 | 31.7 | 59 | 
B2 | 0.076 | 0.092 | 0.14 | 0.229 | 0.411 | 0.757 | 1.41 | 2.7 | 1.4 | 1.6 | 2.5 | 4.1 | 7.3 | 13.5 | 25.2 | 48.3 | 
B3 | 0.067 | 0.088 | 0.137 | 0.229 | 0.433 | 0.795 | 1.44 | 2.67 | 1.4 | 1.9 | 2.9 | 4.9 | 9.2 | 16.9 | 30.7 | 56.8 | 
B4 | 0.071 | 0.09 | 0.135 | 0.23 | 0.447 | 0.819 | 1.53 | 2.86 | 1.5 | 1.9 | 2.9 | 4.9 | 9.5 | 17.4 | 32.5 | 60.8 | 
B5 | 0.067 | 0.089 | 0.141 | 0.242 | 0.447 | 0.818 | 1.51 | 2.79 | 1.4 | 1.8 | 2.9 | 4.9 | 9.1 | 16.7 | 30.8 | 57 | 
B6 | 0.07 | 0.087 | 0.129 | 0.225 | 0.409 | 0.75 | 1.45 | 2.67 | 1.5 | 1.9 | 2.7 | 4.8 | 8.7 | 16 | 30.9 | 56.9 | 
B7 | 0.067 | 0.091 | 0.133 | 0.22 | 0.416 | 0.767 | 1.45 | 2.78 | 1.6 | 2.1 | 3.1 | 5.1 | 9.7 | 17.8 | 33.7 | 64.6 | 
B8 | 0.073 | 0.092 | 0.136 | 0.23 | 0.417 | 0.778 | 1.4 | 2.7 | 1.6 | 2 | 3 | 5.1 | 9.3 | 17.3 | 31.2 | 60 | 
B9 | 0.07 | 0.093 | 0.14 | 0.228 | 0.43 |  | 1.44 | 2.66 | 1.5 | 2 | 3 | 5 | 9.3 | 17.1 | 31.3 | 57.7 | 
